Numbering of substitutions follows the chain as printed. Names may count otherwise.
B1: Pyrococcus horikoshii coenzyme A-disulfide reductase (phCoADR) (Pyrococcus horikoshii OT3) (protein)
chain: MGENMKKKVVIIGGGAAGMSAASRVKRLKPEWDVKVFEATEWVSHAPCGIPYVVEGLSTPDKLMYYPPEVFIKKRGIDLHLNAEVIEVDTGYVRVRENGGEKSYEWDYLVFANGASPQVPAIEGVNLKGVFTADLPPDALAIREYMEKYKVENVVIIGGGYIGIEMAEAFAAQGKNVTMIVRGERVLRRSFDKEVTDILEEKLKKHVNLRLQEITMKIEGEERVEKVVTDAGEYKAELVILATGIKPNIELAKQLGVRIGETGAIWTNEKMQTSVENVYAAGDVAETRHVITGRRVWVPLAPAGNKMGYVAGSNIAGKELHFPGVLGTAVTKFMDVEIGKTGLTEMEALKEGYDVRTAFIKASTRPHYYPGGREIWLKGVVDNETNRLLGVQVVGSDILPRIDTAAAMLMAGFTTKDAFFTDLAYAPPFAPVWDPLIVLARVLKF
notes: recombinant in E. coli BL21(DE3); wild type from pET24d; quad mutant codon-optimized gene in pET21b+ with C-terminal His tag; FAD-containing homodimer
B2: Pyrococcus horikoshii coenzyme A-disulfide reductase (phCoADR) (Pyrococcus horikoshii OT3; H367G/P67G/Y65A/Y66A) (protein)
chain: B1 chain with Y65A, Y66A, P67G, H367G
notes: as for B1

How the values were obtained:
[1] = target: T1, Pyrococcus horikoshii coenzyme A-disulfide reductase (phCoADR) (Pyrococcus horikoshii, UniProt O58308, C48S/Y65A/Y66A/P67G/H367G); assay: anaerobic NADH titration, UV-visible spectra; format: biochemical; conditions: 50 mM potassium phosphate, pH 7.5, room temperature
T1 construct: gene PH0572; recombinant in E. coli BL21(DE3); wild type from pET24d; quad mutant codon-optimized gene in pET21b+ with C-terminal His tag; FAD-containing homodimer
T1 sequence (O58308 whole entry C48S/Y65A/Y66A/P67G/H367G): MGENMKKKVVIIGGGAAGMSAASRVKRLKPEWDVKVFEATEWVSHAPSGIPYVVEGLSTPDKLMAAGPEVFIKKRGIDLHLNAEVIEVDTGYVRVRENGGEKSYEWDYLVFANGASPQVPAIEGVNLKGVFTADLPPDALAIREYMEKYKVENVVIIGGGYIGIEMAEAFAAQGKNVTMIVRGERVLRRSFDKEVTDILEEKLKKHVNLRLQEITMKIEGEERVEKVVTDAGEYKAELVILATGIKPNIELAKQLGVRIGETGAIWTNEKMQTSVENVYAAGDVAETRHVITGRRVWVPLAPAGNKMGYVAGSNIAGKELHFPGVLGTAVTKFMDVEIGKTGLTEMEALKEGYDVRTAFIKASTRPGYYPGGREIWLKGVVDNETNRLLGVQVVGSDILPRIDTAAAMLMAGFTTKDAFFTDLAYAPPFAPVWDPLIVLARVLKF

[2] = target: T2, Pyrococcus horikoshii coenzyme A-disulfide reductase (phCoADR) (Pyrococcus horikoshii, UniProt O58308, Y65A/Y66A/P67G/H367G); assay: X-ray crystal structure, […] Å; format: binding; conditions: tightly bound CoA in substrate channel; mixed disulfide with C48 in oxidized enzyme (covalent)
T2 construct: gene PH0572; recombinant in E. coli BL21(DE3); wild type from pET24d; quad mutant codon-optimized gene in pET21b+ with C-terminal His tag; FAD-containing homodimer
T2 sequence (O58308 whole entry Y65A/Y66A/P67G/H367G): as the sequence (O58308 whole entry C48S/Y65A/Y66A/P67G/H367G) above, with S48C counted along it

purified protein [3] = substrate: CC(C)(COP(=O)(O)OP(=O)(O)OC[C@H]1O[C@@H](n2cnc3c(N)ncnc32)[C@H](O)[C@@H]1OP(=O)(O)O)[C@@H](O)C(=O)NCCC(=O)NCCSSCCNC(=O)CCNC(=O)[C@H](O)C(C)(C)COP(=O)(O)OP(=O)(O)OC[C@H]1O[C@@H](n2cnc3c(N)ncnc32)[C@H](O)[C@@H]1OP(=O)(O)O; assay: purified protein; format: biochemical, Pyrococcus horikoshii; conditions: 100 μM NADPH, 75 °C, 50 mM potassium phosphate, pH 7.5
purified protein [4] = substrate: NC(=O)C1=CN([C@@H]2O[C@H](COP(=O)(O)OP(=O)(O)OC[C@H]3O[C@@H](n4cnc5c(N)ncnc54)[C@H](O)[C@@H]3O)[C@@H](O)[C@H]2O)C=CC1; assay: purified protein; format: biochemical, Pyrococcus horikoshii; conditions: 100 μM CoA disulfide, 75 °C, 50 mM potassium phosphate, pH 7.5
purified protein [5] = substrate: NC(=O)C1=CN([C@@H]2O[C@H](COP(=O)(O)OP(=O)(O)OC[C@H]3O[C@@H](n4cnc5c(N)ncnc54)[C@H](OP(=O)(O)O)[C@@H]3O)[C@@H](O)[C@H]2O)C=CC1; assay: purified protein; format: biochemical, Pyrococcus horikoshii; conditions: 100 μM CoA disulfide, 75 °C, 50 mM potassium phosphate, pH 7.5

| Molecule | anaerobic NADH titration, UV-visible spectra [1] | X-ray crystal structure, 3.6 Å [2] | Km (purified protein [3]) [µM] | kcat (purified protein [3]) [s⁻¹] | Km (purified protein [4]) [µM] | kcat (purified protein [4]) [s⁻¹] | kcat (purified protein [5]) [s⁻¹] | Km (purified protein [5]) [µM] |
| --- | --- | --- | --- | --- | --- | --- | --- | --- |
| NC(=O)C1=CN([C@@H]2O[C@H](COP(=O)(O)OP(=O)(O)OC[C@H]3O[C@@H](n4cnc5c(N)ncnc54)[C@H](O)[C@@H]3O)[C@@H](O)[C@H]2O)C=CC1 [NADH] | Anaerobic titration of the quad‐C48S mutant showed immediate reduction of FAD |  |  |  |  |  |  |  |
| CC(C)(COP(=O)(O)OP(=O)(O)OC[C@H]1O[C@@H](n2cnc3c(N)ncnc32)[C@H](O)[C@@H]1OP(=O)(O)O)[C@@H](O)C(=O)NCCC(=O)NCCS [CoA] |  | CoA is depicted as sticks where carbon is green, nitrogen blue, oxygen red |  |  |  |  |  |  |
| B1 |  |  | 52 ± 1 | 4.4 ± 1.3 | 73 ± 12 | 2.3 ± 0.3 | 5.8 ± 0.2 |  |
| B2 |  |  | 57.0 ± 6.4 | 18.8 ± 2.8 | 75 ± 6 | 8.1 ± 1.4 | 21.6 ± 2.3 | 16.4 ± 4.9 |

From article PMC6026696, “A broader active site in Pyrococcus horikoshii CoA disulfide reductase accommodates larger substrates and reveals evidence of subunit asymmetry” (FEBS Open Bio, 2018)
